Columns and labels:
SEC = biological target: the molecule itself; test: SEC
mass photometry = biological target: the molecule itself; test: mass photometry

B1: Teneurin‐m superfold (Ten‐m^SF), residues 779–2731 (domain or fragment)
chain: LNCGDSKDNDKDGLVDCEDPECCASHVCKTSQLCVSAPKPIDVLLRKQPPAITASFFERMKFLIDESSLQNYAKLETFNESRSAVIRGRVVTSLGMGLVGVRVSTTTLLEGFTLTRDDGWFDLMVNGGGAVTLQFGRAPFRPQSRIVQVPWNEVVIIDLVVMSMSEEKGLAVTTTHTCFAHDYDLMKPVVLASWKHGFQGACPDRSAILAESQVIQESLQIPGTGLNLVYHSSRAAGYLSTIKLQLTPDVIPTSLHLIHLRITIEGILFERIFEADPGIKFTYAWNRLNIYRQRVYGVTTAVVKVGYQYTDCTDIVWDIQTTKLSGHDMSISEVGGWNLDIHHRYNFHEGILQKGDGSNIYLRNKPRIILTTMGDGHQRPLECPDCDGQATKQRLLAPVALAAAPDGSLFVGDFNYIRRIMTDGSIRTVVKLNATRVSYRYHMALSPLDGTLYVSDPESHQIIRVRDTNDYSQPELNWEAVVGSGERCLPGDEAHCGDGALAKDAKLAYPKGIAISSDNILYFADGTNIRMVDRDGIVSTLIGNHMHKSHWKPIPCEGTLKLEEMHLRWPTELAVSPMDNTLHIIDDHMILRMTPDGRVRVISGRPLHCATASTAYDTDLATHATLVMPQSIAFGPLGELYVAESDSQRINRVRVIGTDGRIAPFAGAESKCNCLERGCDCFEAEHYLATSAKFNTIAALAVTPDSHVHIADQANYRIRSVMSSIPEASPSREYEIYAPDMQEIYIFNRFGQHVSTRNILTGETTYVFTYNVNTSNGKLSTVTDAAGNKVFLLRDYTSQVNSIENTKGQKCRLRMTRMKMLHELSTPDNYNVTYEYHGPTGLLRTKLDSTGRSYVYNYDEFGRLTSAVTPTGRVIELSFDLSVKGAQVKVSENAQKEMSLLIQGATVIVRNGAAESRTTVDMDGSTTSITPWGHNLQMEVAPYTILAEQSPLLGESYPVPAKQRTEIAGDLANRFEWRYFVRRQQPLQAGKQSKGPPRPVTEVGRKLRVNGDNVLTLEYDRETQSVVVMVDDKQELLNVTYDRTSRPISFRPQSGDYADVDLEYDRFGRLVSWKWGVLQEAYSFDRNGRLNEIKYGDGSTMVYAFKDMFGSLPLKVTTPRRSDYLLQYDDAGALQSLTTPRGHIHAFSLQTSLGFFKYQYYSPINRHPFEILYNDEGQILAKIHPHQSGKVAFVHDTAGRLETILAGLSSTHYTYQDTTSLVKSVEVQEPGFELRREFKYHAGILKDEKLRFGSKNSLASARYKYAYDGNARLSGIEMAIDDKELPTTRYKYSQNLGQLEVVQDLKITRNAFNRTVIQDSAKQFFAIVDYDQHGRVKSVLMNVKNIDVFRLELDYDLRNRIKSQKTTFGRSTAFDKINYNADGHVVEVLGTNNWKYLFDENGNTVGVVDQGEKFNLGYDIGDRVIKVGDVEFNNYDARGFVVKRGEQKYRYNNRGQLIHSFERERFQSWYYYDDRSRLVAWHDNKGNTTQYYYANPRTPHLVTHVHFPKISRTMKLFYDDRDMLIALEHEDQRYYVATDQNGSPLAFFDQNGSIVKEMKRTPFGRIIKDTKPEFFVPIDFHGGLIDPHTKLVYTEQRQYDPHVGQWMTPLWETLATEMSHPTDVFIYRYHNNDPINPNKPQNYMIDLDSWLQLFGYDLNNMQSSRYTKLAQYTPQASIKSNTLAPDFGVISGLECIVEKTSEKFSDFDFVPKPLLKMEPKMRNLLPRVSYRRGVFGEGVLLSRIGGRALVSVVDGSNSVVQDVVSSVFNNSYFLDLHFSIHDQDVFYFVKDNVLKLRDDNEELRRLGGMFNISTHEISDHGGSAAKELRLHGPDAVVIIKYGVDPEQERHRILKHAHKRAVERAWELEKQLVAAGFQGRGDWTEEEKEELVQHGDVDGWNGIDIHSIHKYPQLADDPGNVAFQRDAKRKRRKTGSSHRSASNRRQLKFGELSA
SEC
  stoichiometry N: 2
Mass photometry
  stoichiometry N: ~4

— article PMC10240212 (EMBO Reports, 2023)
